“And” between values parts separate entries of the source, which are not always exact repeats. Identical values can stand only once.
Legend:
[1] = tested on: patients with geographic atrophy (GA) secondary to age-related macular degeneration (AMD); experiment: OAKS Phase 3 study: GA lesion growth in study eye by fundus autofluorescence; type: in vivo, human
From the text: (§1) This Example describes 12-month results from two Phase 3 multi-center, randomized, double-masked, sham-controlled studies (“DERBY” and “OAKS”) to compare the efficacy and safety of intravitreal APL-2 (pegcetacoplan, also referred to as “Study Drug” in this Example) therapy with sham injections in patients with geographic atrophy (GA) secondary to age-related macular degeneration (AMD).
(§2) To participate in the studies, subjects must have been diagnosed with GA of the macula secondary to AMD in the study eye. At screening, male and female subjects were required to fulfill all of the following inclusion criteria to be eligible for participation in the study. If both eyes met the inclusion criteria, the eye with the worst normal luminance visual acuity at the screening visit was designated as the study eye. If both eyes had the same visual acuity, the right eye was selected as the study eye. Ocular-specific inclusion criteria applied to the study eye only, unless otherwise specified.
The design of the DERBY and OAKS studies are schematically depicted in FIG. 2. […] As part of the screening process, the reading center evaluated FAF, OCT, Digital Color Fundus Photograph (DCFP), Near Infrared Reflectance (NIR), and fluorescein angiography (FA) to provide an objective assessment of subject eligibility. […]
Subjects were analyzed in the treatment arm assigned at randomization. […]

[2] = tested on: patients with geographic atrophy (GA) secondary to age-related macular degeneration (AMD); experiment: DERBY and OAKS combined: GA lesion growth and visual function; type: in vivo, human; details: for reduction in GA lesion growth from baseline compared to sham: combined analysis (FIG. 30); for reduction in lesion growth, study eye vs untreated fellow eye: bilateral GA, 12 months (FIG. 7D); for reduction in foveal lesion growth vs pooled sham / reduction in extrafoveal GA lesion growth vs pooled sham: month 18; for reduction of GA lesion growth vs pooled sham: months 18-24
From the text: as §1, §2
The design of the DERBY and OAKS studies are schematically depicted in FIG. 2. Each subject was assigned a unique screening number after signing the informed consent. Subjects who completed the study screening assessments and met all the eligibility criteria entered the study and were randomized on Day 1. As part of the screening process, the reading center evaluated FAF, OCT, Digital Color Fundus Photograph (DCFP), Near Infrared Reflectance (NIR), and fluorescein angiography (FA) to provide an objective assessment of subject eligibility. Subjects were randomized 2:2:1:1 to receive treatment with Study Drug monthly (PM), Study Drug every other month (PEOM), sham injection monthly (SM) or sham injection every other month (SEOM), respectively.
The Study Drug was pegcetacoplan (also referred to as “APL-2”) (see FIG. 1), which was provided for intravitreal injection at 15 mg/0.1 mL (150 mg/mL) as a sterile, isotonic solution of pegcetacoplan in acetate-buffer, pH 5.0, containing trehalose, supplied in stoppered glass vials.
The primary endpoint in the studies was the change from baseline to Month 12 in total area of GA lesion(s) in the study eye (in mm^2) based on Fundus Autofluorescence (FAF). Key secondary endpoints included change from baseline in the mean threshold sensitivity of all points (study eye) assessed by mesopic microperimetry at Month 24; change from baseline in monocular maximum reading speed (study eye), at Month 24 as assessed by MNRead or Radner reading charts (in select sites); change from baseline in mean FRI Index score (subject-level assessment) at Month 24; and change from baseline in NL-BCVA score (study eye) at Month 24 as assessed by Early Treatment Diabetic Retinopathy Study (ETDRS) chart. Additional secondary endpoints included change from baseline in LL-BCVA score (study eye) over time as assessed by ETDRS chart; change from baseline in the total area of GA lesion(s) in the study eye (in mm^2) as assessed by FAF over time other than Month 12; change from baseline in monocular critical print size (study eye), as assessed by MNRead or Radner reading charts (in select sites) over time; change from baseline in the NEI VFQ-25 distance activity subscale score (in select sites) (subject level assessment) over time; change from baseline in the number of scotomatous points assessed by mesopic microperimetry over time; and change from baseline in the mean threshold sensitivity within 500 microns outside the GA lesion, (perilesional points) assessed by mesopic microperimetry over time.
Two sham treatment arms (SM and SEOM) were pooled into a single control (Sham) group for analyses.
Subjects were analyzed in the treatment arm assigned at randomization.
Unless otherwise noted, hypothesis testing and estimation of treatment effects will be performed with a mixed effect model for repeated measure (MMRM) that includes data from all three treatment arms (PM, PEOM, and Sham). […]

[3] = tested on: patients with geographic atrophy (GA) secondary to age-related macular degeneration (AMD); experiment: DERBY Phase 3 study: safety; details: for Patients with new onset fellow eye eAMD: through 18 months
Description: All randomized subjects returned every month to the clinical site for assessments and additional pegcetacoplan or sham injections according to their randomization scheme until Month 12. From Month 12 onwards, subjects return to the clinical site based on their randomized treatment schedule (monthly or EOM) and follow the treatment regimen and assessments outlined in the Visit Schedule until Month 24. Safety was assessed throughout the study by a number of evaluations including: monitoring of AEs, preinjection and postinjection monitoring, blood and urine samples collected, physical examination, vital signs, and follow-up phone calls. Blood samples were also be collected for anti-therapeutic antibodies, genotyping, and clinical repository (if the subject consented to this portion).
The Safety set consisted of all subjects randomized who received at least one injection of pegcetacoplan or sham. Subjects were analyzed according to the actual treatment received. […] This population was used for all safety analyses.

[4] = PEOM (every other month), 12 months
[5] = PEOM (every other month), 18 months
[6] = PEOM (every other month), N=208

Poly(oxy-1,2-ethanediyl), α-hydro-ω-hydroxy-, 15,15′-diester with N-acetyl-L-isoleucyl-L-cysteinyl-L-valyl-1-methyl-L-tryptophyl-L-glutaminyl-L-α-aspartyl-L-tryptophylglycyl-L-alanyl-L-histidyl-L-arginyl-L-cysteinyl-L-threonyl-2-[2-(2-aminoethoxy) ethoxy]acetyl-N^6-carboxy-L-lysinamide cyclic (2->12)-(disulfide) [pegcetacoplan]
reduction in GA lesion growth versus sham ([1]; distance ≤250 microns, every other month, p=0.0008): 19% | reduction in GA lesion growth versus sham ([1]; lesion distance to foveal center point >250 microns, monthly, p=0.0012): 30% | reduction in GA lesion growth from baseline compared to sham ([2]; EOM, p<0.0001): 24% | reduction in GA lesion growth from baseline compared to sham ([2]; monthly, p<0.0001): 30% | key secondary endpoints measuring visual function, pegcetacoplan vs sham ([2]; combined, 24 months (FIG. 31, NL-BCVA)): no clinically meaningful difference | reduction in lesion growth, study eye vs untreated fellow eye ([2]; combined, every other month): 11% | reduction in lesion growth, study eye vs untreated fellow eye ([2]; combined, monthly): 16% | reduction in GA lesion growth vs pooled sham ([2]; combined, every other month, month 12, p<0.0012): 14% | reduction in foveal lesion growth vs pooled sham ([2]; combined, every other month, p 0.0069): 13% | reduction in extrafoveal GA lesion growth vs pooled sham ([2]; combined, every other month, p=0.0006): 21% | reduction in GA lesion growth vs pooled sham ([2]; combined, every other month, months 0-6 segment): 12% | reduction in GA lesion growth vs pooled sham ([2]; combined, every other month, months 12-18 segment): 17% | reduction of GA lesion growth vs pooled sham ([2]; combined, extrafoveal lesions, EOM): 28% | reduction in GA lesion growth vs pooled sham ([2]; combined, extrafoveal lesions, every other month, 12 months, p=0.0002): 23% | reduction in GA lesion growth vs pooled sham ([2]; combined, extrafoveal lesions, monthly, 12 months, p<0.0001): 26% | reduction of GA lesion growth vs pooled sham ([2]; combined, extrafoveal lesions, monthly): 28% | reduction of GA lesion growth vs pooled sham ([2]; combined, foveal lesions, EOM): 28% | reduction of GA lesion growth vs pooled sham ([2]; combined, foveal lesions, monthly): 34% | reduction in GA lesion growth vs pooled sham ([2]; combined, monthly, month 12, p<0.0001): 17% | reduction in extrafoveal GA lesion growth vs pooled sham ([2]; combined, monthly, p<0.0001): 26% | reduction in foveal lesion growth vs pooled sham ([2]; combined, monthly, p=0.0070): 13% | reduction in GA lesion growth vs pooled sham ([2]; combined, monthly, months 0-6 segment (FIG. 12B)): 13% | reduction in GA lesion growth vs pooled sham ([2]; combined, monthly, months 12-18 segment (FIG. 12B)): 21% | All TEAEs, Total events, M [3, 4]: 600 | All TEAEs, patients [3, 4]: 155 (74.5%) n (%) | Cases of MNV (FA) detected by reading center but not reported by Investigator as AE [3, 4]: 1 | Non-ocular TEAEs, Patients [3, 4]: 110 (52.9%) n (%) | Non-ocular TEAEs, events M [3, 4]: 339 | Ocular TEAE in study eye Vitreous floaters, events M [3, 4]: 5 | Ocular TEAE in study eye Vitreous floaters, patients [3, 4]: 4 (1.9%) n (%) | Ocular TEAEs in study eye, Patients [3, 4]: 91 (43.8%) n (%) and 91 (43.8) n (%) | Ocular TEAEs in study eye, events M [3, 4]: 162 | Serious ocular TEAE Dry AMD, patients [3, 4]: 0 n (%) | Serious ocular TEAE Endophthalmitis, patients [3, 4]: 0 n (%) | Serious ocular TEAE Macular hole, patients [3, 4]: 0 n (%) | Serious ocular TEAE Optic ischemic neuropathy, patients [3, 4]: 0 n (%) | Serious ocular TEAE Papilledema, patients [3, 4]: 0 n (%) | Serious ocular TEAE Retinal detachment, patients [3, 4]: 0 n (%) | Serious ocular TEAE Vitritis, patients [3, 4]: 0 n (%) | Serious ocular TEAEs in the study eye, patients [3, 4]: 0 n (%) | Sum of investigator-determined eAMD and reading center cases not reported by investigators [3, 4]: (3.8%) | Sum of investigator-determined eAMD and reading center cases not reported by investigators ([3]; PEOM (every other month), 12 months, count): 8 | All TEAEs, Total events, M [3, 5]: 835 | All TEAEs, patients [3, 5]: 171 (82.2%) n (%) | Non-ocular TEAEs, M [3, 5]: 495 | Non-ocular TEAEs, Patients [3, 5]: 132 (63.5%) n (%) | Ocular TEAEs in study eye, M [3, 5]: 216 | Ocular TEAEs in study eye, Patients [3, 5]: 99 (47.6%) n (%) | Discontinued study prior to Month 12, reason Adverse Event [3, 6]: 4 (1.9%) n (%) | Discontinued study prior to Month 12, reason Death [3, 6]: 0 n (%) | Discontinued study prior to Month 18, reason Adverse event [3, 6]: 4 (1.9%) n (%) | Discontinued study prior to Month 18, reason Death [3, 6]: 4 (1.9%) n (%) | Patients with new onset fellow eye eAMD ([3]; PEOM (every other month), 166 patients without baseline fellow eye CNV): 8 (4.8%) n (%) | All TEAEs, Total events, M ([3]; PM (monthly), 12 months): 708 | All TEAEs, patients ([3]; PM (monthly), 12 months): 158 (76.7%) n (%) | Cases of MNV (FA) detected by reading center but not reported by Investigator as AE ([3]; PM (monthly), 12 months): 0 | Non-ocular TEAEs, Patients ([3]; PM (monthly), 12 months): 127 (61.7%) n (%) | Non-ocular TEAEs, events M ([3]; PM (monthly), 12 months): 396 | Ocular TEAE in study eye Vitreous floaters, events M ([3]; PM (monthly), 12 months): 22 | Ocular TEAE in study eye Vitreous floaters, patients ([3]; PM (monthly), 12 months): 18 (8.7%) n (%) | Ocular TEAEs in study eye, Patients ([3]; PM (monthly), 12 months): 100 (48.5%) n (%) | Ocular TEAEs in study eye, events M ([3]; PM (monthly), 12 months): 227 | Serious ocular TEAE Dry AMD, patients ([3]; PM (monthly), 12 months): 0 n (%) | Serious ocular TEAE Endophthalmitis, patients ([3]; PM (monthly), 12 months): 0 n (%) | Serious ocular TEAE Macular hole, patients ([3]; PM (monthly), 12 months): 0 n (%) | Serious ocular TEAE Optic ischemic neuropathy, patients ([3]; PM (monthly), 12 months): 0 n (%) | Serious ocular TEAE Papilledema, patients ([3]; PM (monthly), 12 months): 0 n (%) | Serious ocular TEAE Retinal detachment, patients ([3]; PM (monthly), 12 months): 0 n (%) | Serious ocular TEAE Vitritis, events M ([3]; PM (monthly), 12 months): 1 | Serious ocular TEAE Vitritis, patients ([3]; PM (monthly), 12 months): 1 (0.5%) n (%) | Serious ocular TEAEs in the study eye, events M ([3]; PM (monthly), 12 months): 1 | Serious ocular TEAEs in the study eye, patients ([3]; PM (monthly), 12 months): 1 (0.5%) n (%) | Sum of investigator-determined eAMD and reading center cases not reported by investigators ([3]; PM (monthly), 12 months): (6.8%) | Sum of investigator-determined eAMD and reading center cases not reported by investigators ([3]; PM (monthly), 12 months, count): 14 | All TEAEs, Total events, M ([3]; PM (monthly), 18 months): 993 | All TEAEs, patients ([3]; PM (monthly), 18 months): 170 (82.5%) n (%) | Non-ocular TEAEs, M ([3]; PM (monthly), 18 months): 567 | Non-ocular TEAEs, Patients ([3]; PM (monthly), 18 months): 148 (71.8%) n (%) | Ocular TEAEs in study eye, M ([3]; PM (monthly), 18 months): 308 | Ocular TEAEs in study eye, Patients ([3]; PM (monthly), 18 months): 118 (57.3%) n (%) | Discontinued study prior to Month 12, reason Adverse Event ([3]; PM (monthly), N=206): 1 (0.5%) n (%) | Discontinued study prior to Month 12, reason Death ([3]; PM (monthly), N=206): 5 (2.4%) n (%) | Discontinued study prior to Month 18, reason Adverse event ([3]; PM (monthly), N=206): 3 (1.5%) n (%) | Discontinued study prior to Month 18, reason Death ([3]; PM (monthly), N=206): 6 (2.9%) n (%) | Patients with new onset fellow eye eAMD ([3]; PM (monthly), 167 patients without baseline fellow eye CNV): 4 (2.4%) n (%) | patients with study eye investigator-determined new-onset exudative AMD ([3]; every other month, month 18, 11/208 patients): 5.3% | patients with study eye investigator-determined new-onset exudative AMD ([3]; monthly, month 18, 24/206 patients): 11.7%
